T1: 人TIGIT (膜表达人TIGIT稳转细胞株DG44-TIGIT) (human, UniProt Q495A1 22-244)
T1 construct: whole, on cells; also called 细胞表面的TIGIT蛋白; huTIGIT
T1 sequence (looked up): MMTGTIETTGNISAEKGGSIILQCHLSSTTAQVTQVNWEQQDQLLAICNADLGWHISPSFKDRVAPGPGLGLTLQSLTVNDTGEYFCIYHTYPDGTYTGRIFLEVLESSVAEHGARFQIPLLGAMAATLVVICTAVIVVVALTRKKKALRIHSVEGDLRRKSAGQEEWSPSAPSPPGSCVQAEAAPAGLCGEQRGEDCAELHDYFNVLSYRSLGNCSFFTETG

T2: rhTIGIT-Avi-His (human, UniProt Q495A1 22-130)
T2 construct: range 22-130; Expressed in Expi 293 cells, Ni-NTA purified; also called rhTIGIT-Avi-His抗原; not shown: C-terminal Avi tag and His tag from vector pCD-Avi-His
T2 sequence (looked up): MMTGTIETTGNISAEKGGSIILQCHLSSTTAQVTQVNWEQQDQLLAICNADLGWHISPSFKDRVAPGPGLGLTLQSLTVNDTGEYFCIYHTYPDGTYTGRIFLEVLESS

T3: rhTIGIT-Avi-His-bio (human, UniProt Q495A1 22-130, biotin linked to the Avi tag by BirA)
T3 construct: range 22-130; Biotinylated form of rhTIGIT-Avi-His, captured on SA chip for SPR; also called 生物素标记的抗原rhTIGIT-Avi-His-bio; not shown: C-terminal Avi tag (biotinylated) and His tag from vector pCD-Avi-His
T3 sequence (looked up): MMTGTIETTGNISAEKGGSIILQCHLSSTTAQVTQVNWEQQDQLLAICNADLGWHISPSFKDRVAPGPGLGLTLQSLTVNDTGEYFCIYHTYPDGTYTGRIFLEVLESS


Experiments:
[1] = target: T1, 人TIGIT (膜表达人TIGIT稳转细胞株DG44-TIGIT); assay: FACS blocking on DG44-TIGIT cells, competitor rhCD155-cFc-647 (1 ug/ml)
rhTIGIT-Avi-His [2] = target: T2, rhTIGIT-Avi-His; assay: ELISA, rhTIGIT-Avi-His coated at 0.5 ug/mL, antibody titrated
[3] = target: T1, 人TIGIT (膜表达人TIGIT稳转细胞株DG44-TIGIT); assay: FACS binding to DG44-TIGIT cells
rhTIGIT-Avi-His-bio [4] = target: T3, rhTIGIT-Avi-His-bio; assay: SPR (Biacore T200), rhTIGIT-Avi-His-bio captured on SA chip, antibody as analyte
rhTIGIT-Avi-His [5] = target: T2, rhTIGIT-Avi-His; assay: ELISA on coated rhTIGIT-Avi-His
rhTIGIT-Avi-His-bio [6] = target: T3, rhTIGIT-Avi-His-bio; assay: SPR, KD of D1Y1A against KD of 3TB3

Row | Binder | IC50 [1] [µg/mL] | EC50 (rhTIGIT-Avi-His [2]) [µg/mL] | EC50 [3] [µg/mL] | Kd (rhTIGIT-Avi-His-bio [4]) [nM] | fold improvement against 3TB3 (ELISA) (rhTIGIT-Avi-His [5]) [fold] | fold improvement of affinity against 3TB3 (rhTIGIT-Avi-His-bio [6]) [fold]
1 | 3TB3 (antibody, V domains shown, Parent of D1Y1A; also called 全人源抗人TIGIT单抗3TB3; 野生型3TB3) VH: DVQLQESGPGLVKPSETLSLTCTVSGGSISGGYSWSWIRQPPGKGLEWIGSIVPHRSATSYNPSLKSRVTISVDTSKNQFSLKLSSVTAADTSVYYCARSYGGNRLDYWGQGTLVTVSS VL: DIVLTQSPATLSLSPGERATLSCRASQGVGIRLSWYQQKPGQAPRLLIYYTAYRATGVPTRFSGSGSGTDFTLTISSLEPEDFAVYYCLQTFGDPYTFGQGTKLEIKR | 0.212 | 0.0307 | 0.0589 | 1.13 |  | 
2 | 5TB10 (antibody, V domains shown, also called 全人源抗人TIGIT单抗5TB10) VH: DVQLQESGPGLVKPSETLSLTCTVSGDSVSDAGVGWNWIRQPPGKGLEWIGTIVPRRGITTYNPSLKSRVTISVDTSKNQFSLKLSSVTAADTSVYYCARVTTAGFDYWGQGTLVTVSS VL: DIVLTQSPATLSLSPGERATLSCRASQDVKILLNWYQQKPGQAPRLLIYWTSDRATGVPTRFSGSGSGTDFTLTISSLEPEDFAVYYCQQHLDRLPYTFGQGTKLEIKR | 0.435 | 0.754 | 0.0872 |  |  | 
3 | D1Y1A (antibody, V domains shown) VH: DVQLQESGPGLVKPSETLSLTCTVSGGSISYWSWIRQPPGKGLEWIGSIATSYNPSLKSRTSVDTSKNQFSLKLSSVTAADTAVYYCARSYGGNRLDYWGQGTLVTVSS VL: DIVLTQSPATLSLSPGERATLSCRASQGVRLSWYQQKPGQAPRLLIYYYRATGVPARFSGSGSGTDFTLTISSLEPEDFAVYYCLQFPTFGQGTKLEIK |  |  |  | 0.266 | ~3 | ~4

Second part, the binder after the results:

Row | IC50 [1] [µg/mL] | EC50 (rhTIGIT-Avi-His [2]) [µg/mL] | EC50 [3] [µg/mL] | Kd (rhTIGIT-Avi-His-bio [4]) [nM] | fold improvement against 3TB3 (ELISA) (rhTIGIT-Avi-His [5]) [fold] | fold improvement of affinity against 3TB3 (rhTIGIT-Avi-His-bio [6]) [fold] | Binder
4 | 0.563 | 0.28 | 0.096 |  |  |  | TBB8 (antibody, V domains shown, also called 全人源抗人TIGIT单抗TBB8) VH: DVQLQESGPGLVKPSETLSLTCTVSGYSISTGYAWSWIRQPPGKGLEWIGSISAFGGNTYYNPSLKSRVTISVDTSKNQFSLKLSSVTAADTSVYYCARTARWIAFDYWGQGTLVTVSS VL: DIVLTQSPATLSLSPGERATLSCRASQDIGVSLNWYQQKPGQAPRLLIYWTSFRATGVPTRFSGSGSGTDFTLTISSLEPEDFAVYYCQQANGVPLFTFGQGTKLEIKR
5 | 0.308 | 0.293 | 0.0585 |  |  |  | TDC8 (antibody, V domains shown, also called 全人源抗人TIGIT单抗TDC8) VH: DVQLQESGPGLVKPSETLSLTCTVSGGSISSKGFTWSWIRQPPGKGLEWIGQISPLDSSTSYNPSLKSRVTISVDTSKNQFSLKLSSVTAADTSVYYCARGIWTYLYGFDYWGQGTLVTVSS VL: DIVLTQSPATLSLSPGERATLSCRASQSIHAGYLAWYQQKPGQAPRLLIYWTNLRATGVPTRFSGSGSGTDFTLTISSLEPEDFAVYYCLQLMRYPPTFGQGTKLEIKR

Source: CN109734806A (ANHUI ANKE BIOTECHNOLOGY GROUP CO LTD, dated 2019)
